Target: VIGILIN (Homo sapiens, UniProt Q00341 1-1268)
Test: EMSA; 10 nM 32P-RNA, 0-10 uM protein, 250 mM KCl, 5 mM MgCl2, 25 mM Tris-HCl pH 7.5, 10% glycerol, 1 mg/ml acetylated BSA, 1.5 uM yeast tRNA, 25 C, 5 min; 1.2% agarose gel, 1x TBE
Conditions: protein: recombinant; tags: His6 (expressed from pETM30-vigilin-His6); label: 5' 32P

Chain of VIGILIN (Q00341 whole entry): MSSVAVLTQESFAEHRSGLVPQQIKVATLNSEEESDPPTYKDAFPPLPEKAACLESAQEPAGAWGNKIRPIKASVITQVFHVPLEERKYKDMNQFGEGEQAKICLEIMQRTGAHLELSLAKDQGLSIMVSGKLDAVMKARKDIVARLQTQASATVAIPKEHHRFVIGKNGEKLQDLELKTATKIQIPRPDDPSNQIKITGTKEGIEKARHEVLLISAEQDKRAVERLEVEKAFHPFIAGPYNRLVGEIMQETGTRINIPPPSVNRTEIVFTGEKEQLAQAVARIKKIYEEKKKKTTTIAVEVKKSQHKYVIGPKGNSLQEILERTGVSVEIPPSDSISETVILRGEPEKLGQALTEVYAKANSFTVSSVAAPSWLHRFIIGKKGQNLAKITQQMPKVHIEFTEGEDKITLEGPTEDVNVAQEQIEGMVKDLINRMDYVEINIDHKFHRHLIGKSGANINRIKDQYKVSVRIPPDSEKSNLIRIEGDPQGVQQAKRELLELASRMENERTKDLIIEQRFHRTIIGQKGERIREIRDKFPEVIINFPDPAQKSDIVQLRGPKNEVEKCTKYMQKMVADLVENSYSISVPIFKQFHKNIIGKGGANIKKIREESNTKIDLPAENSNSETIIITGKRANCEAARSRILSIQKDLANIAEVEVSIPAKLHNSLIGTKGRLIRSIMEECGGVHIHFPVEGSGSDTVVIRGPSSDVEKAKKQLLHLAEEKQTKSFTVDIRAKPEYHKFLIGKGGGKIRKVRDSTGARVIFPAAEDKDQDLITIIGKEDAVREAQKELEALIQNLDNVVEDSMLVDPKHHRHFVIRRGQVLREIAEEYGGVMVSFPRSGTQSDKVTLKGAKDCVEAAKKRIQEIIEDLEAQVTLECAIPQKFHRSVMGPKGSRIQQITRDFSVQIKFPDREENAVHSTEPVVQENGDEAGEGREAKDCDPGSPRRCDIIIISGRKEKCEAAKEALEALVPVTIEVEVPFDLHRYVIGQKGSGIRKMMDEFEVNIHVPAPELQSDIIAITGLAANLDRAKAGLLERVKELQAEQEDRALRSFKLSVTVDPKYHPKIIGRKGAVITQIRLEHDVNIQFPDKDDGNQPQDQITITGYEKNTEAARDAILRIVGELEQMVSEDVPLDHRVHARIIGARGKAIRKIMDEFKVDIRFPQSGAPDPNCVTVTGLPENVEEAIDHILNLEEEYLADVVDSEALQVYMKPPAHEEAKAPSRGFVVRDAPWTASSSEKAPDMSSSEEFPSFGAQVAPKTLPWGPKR

GAUUUAACUCCACCUACUUCCAGGGC (ssRNA) [Apob binding site WT]
binding result: binds

CUACCUCAAUAAUCAUCUUCUUCAGG (ssRNA) [fetuin-A (Ahsg) binding site WT]
binding result: binds
